The values that follow come from article PMC7876137, “Functional and structural characterization of a flavoprotein monooxygenase essential for biogenesis of tryptophylquinone cofactor” (Nature Communications, 2021).

First the molecules themselves.
T1: linear QhpC (nascent QhpC polypeptide with the 28-residue leader peptide and a C-terminal Twin-Strep tag, … (Pseudomonas putida IFO 15366 (NBRC …)))
T1 construct: also called QhpC-St2; source: E. coli C41 (DE3), co-expressed with His6-QhpD; QhpCD complex purified (HisTrap, Strep trap); QhpD removed by heat denaturation (60 °C, 20 min) before the QhpD-catalyzed reaction; not shown: Twin-Strep (St2), C-terminal, kept
T1 chain: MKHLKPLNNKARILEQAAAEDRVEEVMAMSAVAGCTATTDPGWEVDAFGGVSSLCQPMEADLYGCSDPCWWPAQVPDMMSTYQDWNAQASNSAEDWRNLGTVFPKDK

T2: crosslinked QhpC (quinone-less QhpC with three intra-peptidyl thioether bonds, the 28-residue leader peptide … (Pseudomonas putida IFO 15366 (NBRC …, three intra-peptidyl Cys-to-Asp/Glu thioether bonds (Cys7-Glu16, Cys27-Asp33, Cys41-Asp49 as drawn in Supplementary Fig. 5); Cys37 and Trp43 free)
T2 construct: source: E. coli C41 (DE3), co-expressed with His6-QhpD; QhpCD complex purified (HisTrap, Strep trap); QhpD removed by heat denaturation (60 °C, 20 min) after the QhpD-catalyzed thioether bond formation; not shown: Twin-Strep (St2), C-terminal, kept
T2 chain: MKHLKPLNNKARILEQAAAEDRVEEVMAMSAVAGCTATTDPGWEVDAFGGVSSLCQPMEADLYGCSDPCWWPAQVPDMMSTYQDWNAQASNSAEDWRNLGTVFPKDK

B1: QhpG from Pseudomonas putida IFO 15366 (wild-type) (enzyme)
chain: MAEPRIVVLGAGPAGAATAIGLRRLGYAVTVVSEWRRFAAVEGVSQRVLEGLRHVGLGGALRQAAMPATRQVHWNGQQLHLNQEFLLDRQRFDRALRDDLQRAGVSVVEGRVREVVRDVGHGIRLDDGQVLQADFLVEARGRQAPLAADRLRGPETVSLLNVWQAAPGAPASAVESLADGWAWMARLEDGRCYWQVTLDAAGLPGKAGLADYCAARRADSALVTELFDARALASAEVHARSSTAILAGECVGQDWIRVGDAAMAVDPLSGNGIFQSLSSALQAPVVINTLLRRPERAGLARQFHQQRIEQLFLRFARIGRDFYGQEQGRVGQPFWARRQGWPDMQALHVAADWSAVRVERRPVLRDGLVDEAEVVVTADQPLGVWHLQGVELAPAVRELQAGRPLEAVVSGLSGEQQRMVRRWLLEQGLV
notes: Monomer by gel filtration; From the His6-TEV oligonucleotide, a few residues (G, H) may remain before Met1 after TEV cleavage; this is surmised; also called PpQhpG; peptidyl tryptophan dihydroxylase; source: E. coli C41 (DE3), purified (Ni-Sepharose FF, HisTrap HP; His6-tag removed with TEV protease, second HisTrap HP); not shown: His6, N-terminal, cleaved
B2: QhpG R70A mutant (Pseudomonas putida) (enzyme)
chain: MAEPRIVVLGAGPAGAATAIGLRRLGYAVTVVSEWRRFAAVEGVSQRVLEGLRHVGLGGALRQAAMPATAQVHWNGQQLHLNQEFLLDRQRFDRALRDDLQRAGVSVVEGRVREVVRDVGHGIRLDDGQVLQADFLVEARGRQAPLAADRLRGPETVSLLNVWQAAPGAPASAVESLADGWAWMARLEDGRCYWQVTLDAAGLPGKAGLADYCAARRADSALVTELFDARALASAEVHARSSTAILAGECVGQDWIRVGDAAMAVDPLSGNGIFQSLSSALQAPVVINTLLRRPERAGLARQFHQQRIEQLFLRFARIGRDFYGQEQGRVGQPFWARRQGWPDMQALHVAADWSAVRVERRPVLRDGLVDEAEVVVTADQPLGVWHLQGVELAPAVRELQAGRPLEAVVSGLSGEQQRMVRRWLLEQGLV
notes: R70A is still to be applied; source: E. coli C41 (DE3), purified (Ni-Sepharose FF, HisTrap HP; His6-tag removed with TEV protease, second HisTrap HP); not shown: His6, N-terminal, cleaved
B3: QhpG R314A mutant (Pseudomonas putida) (enzyme)
chain: MAEPRIVVLGAGPAGAATAIGLRRLGYAVTVVSEWRRFAAVEGVSQRVLEGLRHVGLGGALRQAAMPATRQVHWNGQQLHLNQEFLLDRQRFDRALRDDLQRAGVSVVEGRVREVVRDVGHGIRLDDGQVLQADFLVEARGRQAPLAADRLRGPETVSLLNVWQAAPGAPASAVESLADGWAWMARLEDGRCYWQVTLDAAGLPGKAGLADYCAARRADSALVTELFDARALASAEVHARSSTAILAGECVGQDWIRVGDAAMAVDPLSGNGIFQSLSSALQAPVVINTLLRRPERAGLARQFHQQRIEQLFLAFARIGRDFYGQEQGRVGQPFWARRQGWPDMQALHVAADWSAVRVERRPVLRDGLVDEAEVVVTADQPLGVWHLQGVELAPAVRELQAGRPLEAVVSGLSGEQQRMVRRWLLEQGLV
notes: R314A is still to be applied; source: E. coli C41 (DE3), purified (Ni-Sepharose FF, HisTrap HP; His6-tag removed with TEV protease, second HisTrap HP); not shown: His6, N-terminal, cleaved
B4: QhpG R47A mutant (Pseudomonas putida) (enzyme)
chain: MAEPRIVVLGAGPAGAATAIGLRRLGYAVTVVSEWRRFAAVEGVSQAVLEGLRHVGLGGALRQAAMPATRQVHWNGQQLHLNQEFLLDRQRFDRALRDDLQRAGVSVVEGRVREVVRDVGHGIRLDDGQVLQADFLVEARGRQAPLAADRLRGPETVSLLNVWQAAPGAPASAVESLADGWAWMARLEDGRCYWQVTLDAAGLPGKAGLADYCAARRADSALVTELFDARALASAEVHARSSTAILAGECVGQDWIRVGDAAMAVDPLSGNGIFQSLSSALQAPVVINTLLRRPERAGLARQFHQQRIEQLFLRFARIGRDFYGQEQGRVGQPFWARRQGWPDMQALHVAADWSAVRVERRPVLRDGLVDEAEVVVTADQPLGVWHLQGVELAPAVRELQAGRPLEAVVSGLSGEQQRMVRRWLLEQGLV
notes: R47A is still to be applied; source: E. coli C41 (DE3), purified (Ni-Sepharose FF, HisTrap HP; His6-tag removed with TEV protease, second HisTrap HP); not shown: His6, N-terminal, cleaved
B5: QhpG W183F mutant (Pseudomonas putida) (enzyme)
chain: MAEPRIVVLGAGPAGAATAIGLRRLGYAVTVVSEWRRFAAVEGVSQRVLEGLRHVGLGGALRQAAMPATRQVHWNGQQLHLNQEFLLDRQRFDRALRDDLQRAGVSVVEGRVREVVRDVGHGIRLDDGQVLQADFLVEARGRQAPLAADRLRGPETVSLLNVWQAAPGAPASAVESLADGWAFMARLEDGRCYWQVTLDAAGLPGKAGLADYCAARRADSALVTELFDARALASAEVHARSSTAILAGECVGQDWIRVGDAAMAVDPLSGNGIFQSLSSALQAPVVINTLLRRPERAGLARQFHQQRIEQLFLRFARIGRDFYGQEQGRVGQPFWARRQGWPDMQALHVAADWSAVRVERRPVLRDGLVDEAEVVVTADQPLGVWHLQGVELAPAVRELQAGRPLEAVVSGLSGEQQRMVRRWLLEQGLV
notes: W183F is still to be applied; source: E. coli C41 (DE3), purified (Ni-Sepharose FF, HisTrap HP; His6-tag removed with TEV protease, second HisTrap HP); not shown: His6, N-terminal, cleaved
B6: QhpG E42A mutant (Pseudomonas putida) (enzyme)
chain: MAEPRIVVLGAGPAGAATAIGLRRLGYAVTVVSEWRRFAAVAGVSQRVLEGLRHVGLGGALRQAAMPATRQVHWNGQQLHLNQEFLLDRQRFDRALRDDLQRAGVSVVEGRVREVVRDVGHGIRLDDGQVLQADFLVEARGRQAPLAADRLRGPETVSLLNVWQAAPGAPASAVESLADGWAWMARLEDGRCYWQVTLDAAGLPGKAGLADYCAARRADSALVTELFDARALASAEVHARSSTAILAGECVGQDWIRVGDAAMAVDPLSGNGIFQSLSSALQAPVVINTLLRRPERAGLARQFHQQRIEQLFLRFARIGRDFYGQEQGRVGQPFWARRQGWPDMQALHVAADWSAVRVERRPVLRDGLVDEAEVVVTADQPLGVWHLQGVELAPAVRELQAGRPLEAVVSGLSGEQQRMVRRWLLEQGLV
notes: E42A is still to be applied; source: E. coli C41 (DE3), purified (Ni-Sepharose FF, HisTrap HP; His6-tag removed with TEV protease, second HisTrap HP); not shown: His6, N-terminal, cleaved

Broadly, the Kd is the equilibrium constant for the complex coming apart. A high value points to lower affinity. The term koff denotes the rate constant with which the complex falls apart. High values mean fast dissociation, low ones slow dissociation. Broadly, the kon is the second-order rate constant of association. Read a low kon as slow association.

The first test has as its target crosslinked QhpC (quinone-less QhpC of Ps. putida with three intra-peptidyl thioether bonds, the 28-residue leader peptide and a C-terminal Twin-Strep tag) (Pseudomonas putida IFO 15366 (NBRC 15366)). Kind of test: BLI; BLItz; QhpC immobilised through the St2-tag on streptavidin-coated biosensors, QhpG as analyte; 10 mM Tris-HCl, pH 7.4, 150 mM NaCl, 0.1% BSA, 0.02% Tween 20, 25 °C; global analysis.
Details: not given
For orientation: Biolayer interferometry detects binding as a change in optical thickness at a sensor tip.
Consider “QhpG from Pseudomonas putida (flavoprotein monooxygenase, peptidyl tryptophan dihydroxylase), tag-less wild type (enzyme)”, for which the fold higher affinity (KD) than for linear QhpC is 100 fold.

The target in a further test is T1, linear QhpC (nascent QhpC polypeptide …). Kind of test: BLI; BLItz system; linear or crosslinked QhpC immobilised through the St2-tag on streptavidin-coated biosensors; QhpG as analyte; 10 mM Tris-HCl pH 7.4, 150 mM NaCl, 0.1% BSA, 0.02% Tween 20; 25 °C; reference with a ligand-free biosensor; global analysis. The settings on record: both partners purified.
As for B1, the Kd is 2800 ± 22 nM, the koff is 0.16 s⁻¹ and the kon was 59000 M⁻¹ s⁻¹.

In the next test the target is T2, crosslinked QhpC (quinone-less QhpC …). The description is as above. The settings on record: both partners purified.
The molecule B1 had a Kd of 28 ± 2.3 nM, a koff of 0.014 s⁻¹ and a kon of 490000 M⁻¹ s⁻¹.
In the same order, the values of B2 are 48 ± 3.6 nM, 0.022 s⁻¹ and 470000 M⁻¹ s⁻¹.
For B3, the Kd was 78 ± 28 nM, the koff was 0.011 s⁻¹ and the kon was determined as 140000 M⁻¹ s⁻¹.
B4: binding was characterised by a dissociation constant (Kd) of 1500 ± 490 nM, the koff was found to be 0.023 s⁻¹ and the kon worked out at 15000 M⁻¹ s⁻¹.
In the same order, the values of B5 are 37 ± 19 nM, 0.013 s⁻¹ and 360000 M⁻¹ s⁻¹.
The corresponding values for B6 are 65 ± 8.1 nM, 0.011 s⁻¹ and 170000 M⁻¹ s⁻¹.
